The target in data set [1] is T1, Human Hsc70 (HSPA8) (human, UniProt P11142 1-646).
T1 construct: Hsc70 (HSPA8), constitutive Hsp70, human, wild type; In the functional rows from MEF and HeLa cells the Hsc70/Hsp70 is the cells' own; this molecule stands for it there; source: E. coli BL21 (DE3) Rosetta, purified (Ni-IDA, Ulp1 cleavage, reverse Ni-IDA)
Kind of data set: fluorescence polarisation; fluorescein-labelled peptide at 1 μM titrated with Hsc70 (0–60 μM), 2 h at 25°C, HKM150 buffer (25 mM HEPES/KOH pH 7.6, 150 mM KCl, 5 mM MgCl2); Hsc70 concentrated in the presence of 1 mM ATP; quadratic fit. The settings on record: both partners purified.

Data set [2] concerns the molecule itself. Kind of data set: native gel or EMSA; blue-native PAGE (8% gel, on ice) of purified Hsf1 wild type or variants, also after 10 min at 4–42°C (5 μM protein); Coomassie stain or immunoblot with Hsf1 antiserum.
Data set [3] concerns the molecule itself. Put plainly: SEC + native gel or EMSA; trimer-to-monomer ratio of freshly purified Hsf1 in the absence of heat shock, by gel filtration (Superdex 200) and BN-PAGE.
Data set [4] concerns the target T1, Human Hsc70 (HSPA8). Kind of data set: HDX-MS; 6 μM Hsf1 (monomer or trimer) pre-incubated 30 min at 25°C with 12 μM Hsc70 or 9 μM DnaJB1 in 25 mM HEPES/NaOH pH 7.5, 150 mM NaCl, 10% glycerol, 2 mM DTT; diluted 10-fold in D2O buffer, 30 s at 25°C; online pepsin digestion. The settings on record: both partners purified.
Data set [5] concerns the molecule itself. Kind of data set: native gel or EMSA; blue-native PAGE of lysates (15 μg total protein) of transfected HSF1−/− MEFs, immunoblot with Hsf1 antiserum.

Ends that are not written are not given here.

T1 sequence (P11142 whole entry): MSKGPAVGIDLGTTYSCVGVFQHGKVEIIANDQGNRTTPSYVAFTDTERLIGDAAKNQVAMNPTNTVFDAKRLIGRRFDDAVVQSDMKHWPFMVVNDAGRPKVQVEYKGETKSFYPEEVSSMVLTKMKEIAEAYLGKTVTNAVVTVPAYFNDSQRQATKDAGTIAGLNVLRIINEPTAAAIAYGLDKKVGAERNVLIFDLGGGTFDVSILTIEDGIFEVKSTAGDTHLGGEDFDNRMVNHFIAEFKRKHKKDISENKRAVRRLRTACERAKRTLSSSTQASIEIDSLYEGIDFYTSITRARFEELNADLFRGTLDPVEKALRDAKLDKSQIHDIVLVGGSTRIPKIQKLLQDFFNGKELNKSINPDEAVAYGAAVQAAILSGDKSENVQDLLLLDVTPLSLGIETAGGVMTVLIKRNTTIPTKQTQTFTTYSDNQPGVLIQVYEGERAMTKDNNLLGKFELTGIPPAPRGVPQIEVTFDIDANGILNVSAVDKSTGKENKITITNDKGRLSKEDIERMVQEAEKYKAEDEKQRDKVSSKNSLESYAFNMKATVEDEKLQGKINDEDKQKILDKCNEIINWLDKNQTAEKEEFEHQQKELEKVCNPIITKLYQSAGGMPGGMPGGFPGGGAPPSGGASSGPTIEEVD

B1: Hsf1 peptide N200‐K208‐C (peptide)
peptide: NRILGVKRKC(fluorescein‑5‑maleimide)
notes: Hsf1, human, residues 200-208; C-terminal cysteine for labelling, not part of the Hsf1 stretch
In the case of B1, the binding result with Human Hsc70 (HSPA8) [1] is given as “binds”.

B2: Hsf1 peptide Y468‐S480‐C (peptide)
peptide: YTAQPLFLLDPGSC(fluorescein‑5‑maleimide)
notes: Hsf1, human, residues 468-480 (in the TAD); C-terminal cysteine for labelling, not part of the Hsf1 stretch
Turning to B2, the binding result with Human Hsc70 (HSPA8) [1] is listed as “binds”.

B3: Hsf1∆(202–213) (natural protein, human, UniProt Q00613 1-529, looked up)
chain: MDLPVGPGAAGPSNVPAFLTKLWTLVSDPDTDALICWSPSGNSFHVFDQGQFAKEVLPKYFKHNNMASFVRQLNMYGFRKVVHIEQGGLVKPERDDTEFQHPCFLRGQEQLLENIKRKVTSVSTLKSEDIKIRQDSVTKLLTDVQLMKGKQECMDSKLLAMKHENEALWREVASLRQKHAQQQKVVNKLIQFLISLVQSNRNDSGSAHSMPKYSRQFSLEHVHGSGPYSAPSPAYSSSSLYAPDAVASSGPIISDITELAPASPMASPGGSIDERPLSSSPLVRVKEEPPSPPQSPRVEEASPGRPSSVDTLLSPTALIDSILRESEPAPASVTALTDARGHTDTEGRPPSPPPTSTPEKCLSVACLDKNELSDHLDAMDSNLDNLQTMLSSHGFSVDTSALLDLFSPSVTVPDMSLPDLDSSLASIQELLSPQEPPRPPEAENSSPDSGKQLVHYTAQPLFLLDPGSVDTGSNDLPVLFELGEGSYFSEGDGFAEDPTISLLTGSEPPKAKDPTVS
notes: source: E. coli BL21 (DE3) Rosetta, purified (Ni-IDA, Ulp1 cleavage, Superdex 200); not shown: His6-SUMO, N-terminal, cleaved
Regarding B3, the binding result in data set [2] was “binds”.

B4: Hsf1‐I190S,I194S (natural protein, human, UniProt Q00613 1-529, looked up)
chain: MDLPVGPGAAGPSNVPAFLTKLWTLVSDPDTDALICWSPSGNSFHVFDQGQFAKEVLPKYFKHNNMASFVRQLNMYGFRKVVHIEQGGLVKPERDDTEFQHPCFLRGQEQLLENIKRKVTSVSTLKSEDIKIRQDSVTKLLTDVQLMKGKQECMDSKLLAMKHENEALWREVASLRQKHAQQQKVVNKLSQFLSSLVQSNRILGVKRKIPLMLNDSGSAHSMPKYSRQFSLEHVHGSGPYSAPSPAYSSSSLYAPDAVASSGPIISDITELAPASPMASPGGSIDERPLSSSPLVRVKEEPPSPPQSPRVEEASPGRPSSVDTLLSPTALIDSILRESEPAPASVTALTDARGHTDTEGRPPSPPPTSTPEKCLSVACLDKNELSDHLDAMDSNLDNLQTMLSSHGFSVDTSALLDLFSPSVTVPDMSLPDLDSSLASIQELLSPQEPPRPPEAENSSPDSGKQLVHYTAQPLFLLDPGSVDTGSNDLPVLFELGEGSYFSEGDGFAEDPTISLLTGSEPPKAKDPTVS
notes: Hsf1, human, with I190S and I194S in HR-B; source: purified (gel filtration)
In the case of B4, the “stoichiometry N” value in data set [3] was 3.

B5: Human heat shock transcription factor 1 (Hsf1), wild type (natural protein, UniProt Q00613 1-529, looked up)
chain: MDLPVGPGAAGPSNVPAFLTKLWTLVSDPDTDALICWSPSGNSFHVFDQGQFAKEVLPKYFKHNNMASFVRQLNMYGFRKVVHIEQGGLVKPERDDTEFQHPCFLRGQEQLLENIKRKVTSVSTLKSEDIKIRQDSVTKLLTDVQLMKGKQECMDSKLLAMKHENEALWREVASLRQKHAQQQKVVNKLIQFLISLVQSNRILGVKRKIPLMLNDSGSAHSMPKYSRQFSLEHVHGSGPYSAPSPAYSSSSLYAPDAVASSGPIISDITELAPASPMASPGGSIDERPLSSSPLVRVKEEPPSPPQSPRVEEASPGRPSSVDTLLSPTALIDSILRESEPAPASVTALTDARGHTDTEGRPPSPPPTSTPEKCLSVACLDKNELSDHLDAMDSNLDNLQTMLSSHGFSVDTSALLDLFSPSVTVPDMSLPDLDSSLASIQELLSPQEPPRPPEAENSSPDSGKQLVHYTAQPLFLLDPGSVDTGSNDLPVLFELGEGSYFSEGDGFAEDPTISLLTGSEPPKAKDPTVS
notes: heat shock transcription factor 1 (Hsf1), human, wild type; Purified both as a monomer and as a trimer; One molecule is used for both states; the assay's format tells which was used; also called Hsf1wt; wt; source: E. coli BL21 (DE3) Rosetta, purified (Ni-IDA, Ulp1 cleavage, Superdex 200); monomeric and trimeric fractions collected separately; not shown: His6-SUMO, N-terminal, cleaved
On to B5, for which, in the data set with Human Hsc70 (HSPA8) [4], the binding result is recorded as “binds”.

B6: Hsf1‐I202S,L203S,V205S expressed from pIRES‐HSF1‐I202S,L203S,V205S_hrGFP in cells (natural protein, human, UniProt Q00613 1-529, looked up)
chain: MDLPVGPGAAGPSNVPAFLTKLWTLVSDPDTDALICWSPSGNSFHVFDQGQFAKEVLPKYFKHNNMASFVRQLNMYGFRKVVHIEQGGLVKPERDDTEFQHPCFLRGQEQLLENIKRKVTSVSTLKSEDIKIRQDSVTKLLTDVQLMKGKQECMDSKLLAMKHENEALWREVASLRQKHAQQQKVVNKLIQFLISLVQSNRSSGSKRKIPLMLNDSGSAHSMPKYSRQFSLEHVHGSGPYSAPSPAYSSSSLYAPDAVASSGPIISDITELAPASPMASPGGSIDERPLSSSPLVRVKEEPPSPPQSPRVEEASPGRPSSVDTLLSPTALIDSILRESEPAPASVTALTDARGHTDTEGRPPSPPPTSTPEKCLSVACLDKNELSDHLDAMDSNLDNLQTMLSSHGFSVDTSALLDLFSPSVTVPDMSLPDLDSSLASIQELLSPQEPPRPPEAENSSPDSGKQLVHYTAQPLFLLDPGSVDTGSNDLPVLFELGEGSYFSEGDGFAEDPTISLLTGSEPPKAKDPTVS
notes: Hsf1, human, with I202S, L203S, V205S; source: HSF1−/− MEF or HeLa, transiently transfected, in lysate or in cells
With B6, in data set [5], the “stoichiometry N” value amounted to 3.

B7: Hsf1 peptide G204‐N214‐C (peptide)
peptide: GVKRKIPLMLNC(fluorescein‑5‑maleimide)
notes: Hsf1, human, residues 204-214; C-terminal cysteine for labelling, not part of the Hsf1 stretch
B7: in the data set with Human Hsc70 (HSPA8) [1], the binding result is “binds”.

B8: Hsf1 peptide S461‐Q471‐C (peptide)
peptide: SGKQLVHYTAQC(fluorescein‑5‑maleimide)
notes: Hsf1, human, residues 461-471 (in the TAD); C-terminal cysteine for labelling, not part of the Hsf1 stretch; also called residues 461–471
Turning to B8, the Kd with Human Hsc70 (HSPA8) [1] is 5 to 30 µM.
